Test results as given in the DeepSol protein solubility set.

Assay: soluble on expression in E. coli; label from the status in PepcDB or PDB records

| Sequence | soluble on expression in E. coli |
| --- | --- |
| MAAAENRVQQVKGILTMAINNGTLWQVIDMRNNERLNCVDMAVRAGSETCAMLITKVAREYAKHRPRSEVEKKFDSMPTTEEDVTISLGPKTADTFDDNYVKELVRQSESASGHAVATKKLSREKISNSLAKGNVAAVQGREYLKMVKRSSSAHSRLMSQRTFSVESGSIDSSEPSTPQLTSPPADHGVFSSVGEKIRNIFGKKPPLHTKSLSVVQTDRIAAPAVRSSSISNKPLSYQTSGNSNEEDHLRLPQHSSSSESPPSEGPSNSGLFRWSSKDKPMTSTVSTANGVRLPPLSLRRRTNSDPKNRDFTSLGGDE | not soluble |
| MSASVKESLQLQLLEMEMLFSMFPNQGEVKLEDVNALTNIKRYLEGTREALPPKIEFVITLQIEEPKVKIDLQVTMPHSYPYVALQLFGRSSELDRHQQLLLNKGLTSYIGTFDPGELCVCAAIQWLQDNSASYFLNRKLVYEPSTQAKPVKNTFLRMWIYSHHIYQQDLRKKILDVGKRLDVTGFCMTGKPGIICVEGFKEHCEEFWHTIRYPNWKHISCKHAESVETEGNGEDLRLFHSFEELLLEAHGDYGLRNDYHMNLGQFLEFLKKHKSEHVFQILFGIESKSSDSLEHHHHHH | soluble |
| MASYPCHQHASAFDQAARSRGHNNRRTALRPRRQQEATEVRPEQKMPTLLRVYIDGPHGMGKTTTTQLLVALGSRDDIVYVPEPMTYWRVLGASETIANIYTTQHRLDQGEISAGDAAVVMTSAQITMGMPYAVTDAVLAPHIGGEAGSSHAPPPALTLIFDRHPIAALLCYPAARYLMGSMTPQAVLAFVALIPPTLPGTNIVLGALPEDRHIDRLAKRQRPGERLDLAMLAAIRRVYGLLANTVRYLQCGGSWREDWGQLSGTAVPPQGAEPQSNAGPRPHIGDTLFTLFRAPELLAPNGDLYNVFAWALDVLAKRLRSMHVFILDYDQSPAGCRDALLQLTSGMVQTHVTTPGSIPTICDLARTFAREMGEAN | soluble |
| MIRIGVLISGSGTNLQAILDGCREGRIPGRVAVVISDRADAYGLERARRAGVDALHMDPAAYPSRTAFDAALAERLQAYGVDLVCLAGYMRLVRGPMLTAFPNRILNIHPSLLPAFPGLEAQRQALEHGVKVAGCTVHFVTAGVDEGPIILQAAVPVLEGDTVEDLRRRILAEEHRIYPEAIRLFAEGRLVIEGRRVRILDRAEAPRG | soluble |
| SFRKGKKRHSSSSSQSSEISTKSKSVDSSLGGLSRSSTVASLDTDSTKSSGQSNNNSDTCAEFRIKYVGAIEKLKLSEGKGLEGPLDLINYIDVAQQDGKLPFVPPEEEFIMGVSKYGIKVSTSDQYDVLHRHALYLIIRMVCYDDGLGVGKSLLALKTTDASNEEYSLWVYQCNSLEQAQAICKVLSTAFDSVLTSEKP | soluble |
| MKRSEKKSMSSALKNGIMERTQPEKVVQMQGTADLSTSKLGTKKYWDELYALELENFRRNPQDTGDCWFSDSDAEQKMIDFLVDNIGAYRISENASVVDLGTGNGHMLFELHQTEFQGKLVGIDYSEESVKLASNIAEATGVDNFISFQQADIFSGDWKPGKYDIVLDKGTLDAISLSGMKINGKLDVVDVYAGVVERILKKDGIFLITSCNFTQDELVKIIETDNLKMWKTIKYPVFQFGGVQGATICSVAFVKQN | soluble |
| MEIEVVYQHSDFIIINKSEGISVHKDQEEQGLTELVAKQLNVPKVWLVHRLDKVTSGLLILALNAESAAEFSRLFSEHKIHKTYLALSNQKPKKKQGLIIGDMKKAREGAWKLCQTKDNPAITRFESVSCEPNLRLFILKPQTGKTHQLRVAMKSLGSPILGDGLYGKNTEKIDRTYLHATQLEFDYLNNFISVTCLPSQGQFWIKPTVFEQIQVYLTKPFLSKLEHHHHHH | soluble |
| MSLRKFSLIMATYGRKDEVGCFLESLMNSNYPMDKVEVIIVDQNKEIDLEPIISKYKEKIKVVHIKSNERGLALNRNKGLEIATGDIIAFPDDDCEYLVDTLNIVNNYFENEHCDLLMGRIVERNGEDSLREWPKEKIEINKNNFYTKCSSVTMFLDSKKCFVKFNDQLGAGKYFGACEDADLIYKNCKKGLKIIYNPELQIYHPHYDSNSNMDDKKIYSYGLGFGAMVKSNFDFSMLILFIKAEGYHFLKSLIYLITFKTTKSKRSWLAFKSRIKGFFEYKNEGHHHHHH | soluble |
| MEKDDATASFSPSFSTYSGDRLVEIAERVCYKEKSDAEFEFSTAATSSSGDGGLVFPVFNKNLISGDVSPEKVIPLKDLFLRERNDQQPPQQTYSSSSDEEEEDDEFDSIPSEIYCPWTPARSTADMSPSGGCRKSKSTGSSSTSTWSTKRWRLRDFLKRSKSDGKQSLKFLNPTNRDDDDESSKSKKKVSVSVTVSAHEKFYLRNKAIKEEDKRKSYLPYKQDLVGLFSNIHRYGKTFPPF | not soluble |
| GPGSMTDFYSLIPSAPKGRFDGIERAHTAEDVKRLRGSVEIKYSLAEMGANRLWKLIHEEDFVNALGALSGNQAMQMVRAGLKAIYLSGWQVAADANTASAMYPDQSLYPANAGPELAKRINRTLQRADQIETAEGKGLSVDTWFAPIVADAEAGFGDPLDAFEIMKAYIEAGAAGVHFEDQLASEKKCGHLGGKVLIPTAAHIRNLNAARLAADVMGTPTLIVARTDAEAAKLLTSDIDERDQPFVDYEAGRTAEGFYQVKNGIEPCIARAIAYAPYCDLIWMETSKPDLAQARRFAEAVHKAHPGKLLAYNCSPSFNWKKNLDDATIAKFQRELGAMGYKFQFITLAGFHQLNYGMFELARGYKDRQMAAYSELQQAEFAAEADGYTATKHQREVGTGYFDAVSLAITGGQSSTTAMKESTETAQFKPAAE | soluble |
| MHKAILNSDLIATKAGDVTVYNYDGETREYISTSNEYLAVGVGIPACSCLDAPGTHKAGYAICRSADFNSWEYVPDHRGETVYSTKTGESKEIKAPGDYPENTTTIAPLSPYDKWDGEKWVTDTEAQHSAAVDAAEAQRQSLIDAAMASISLIQLKLQAGRKLTQAETTRLNAVLDYIDAVTATDTSTAPDVIWPELPEA | not soluble |
| MLNVESHVLRYWEEELEIKIPRNEMGHRYYTEDNIESLRKVRDLKKQGYSLKAIKNMVNPKKATRENKESNERLTVRQPISLMEVREKKVGVENCYQEVPEAMSGSVQSVVQNMTQSNGQNAESAGLKLEQFQNLMNKVVSKALKESTTNLGKELSDNVSENVLKGMNYMMRVQDEKEEERYRKLDELMRNKQKLSRREKRKKAKAEKLLLKNKKKGMAHFGKKPQTT | not soluble |
| SRPADLLQLVLLLDLPRDLGGMGCSSPPCECHQEEDFRVTCKDIQRIPSLPPSTQTLKLIETHLRTIPSHAFSNLPNISRIYVSIDVTLQQLESHSFYNLSKVTHIEIRNTRNLTYIDPDALKELPLLKFLGIFNTGLKMFPDLTKVYSTDIFFILEITDNPYMTSIPVNAFQGLCNETLTLKLYNNGFTSVQGYAFNGTKLDAVYLNKNKYLTVIDKDAFGGVYSGPSLLLPLGRKSLSFETQKAPRSSMPS | soluble |
| WNRRTEQLTDGLGAQIDPDSMTPASPADIDTLTAWRQGKIIFKDQPLASVVKEMNRYLPQPITITDHRLDQVRIAGVFNTGDSAAFLQALHKSIPVQVILHADGSTELSLPR | not soluble |
| MGSDKIHHHHHHMRVYIGCGGYTDEDWTAPGLIYEGVKKDAFLETYAHHFDAVELNSSFYAIPGLKAFEGMVRKSGGWVRFAVKLNKVFTHVRAPTDTDFDRMLQSPEPLREAGMMGPYLAQFPYSFHRTAANRKYLALLTERFAGHELAVELRHASWDKPEVREGMGEFGIIWVSPDYPPVGGMPEPQVHVTGDVGYLRLHGRNRETWWEGQSAGERHDYLYNRAEMDEWAEKIAAVAGDLSELYVFFQNTTGGHALKNIPMLREALNARGVPVQTPEAHDGGRLL | not soluble |
| MGSDKIHHHHHHMIKVLHLFTTLDSGGVESFLFNYYSHIDRKKIQFDFIVPGKEQGFLEDKMKELGAKVYHVPLLRKKPLHQFLSLARIIKKGDYDIVHCHGYKSAIGLILSKIIGCKIRIIHSHMAYVTENSFQKVLRKLVTILVKILATHWFACGEDSAKWLYGEKAYKDGKIEIIFNAIDLKKYQFLSDVREKCRRELDVSNKFVLGNIARLSDQKNQSYLFNVLKELILIKPNVILLLVGNGEDEQKLKQKALELNLTPYVLFLGRRTDISDLLSAMDVFLLPSKYEGLPVSLVEAQASGLQILSSDTVTQEVDVTKNISYLPINEESVLLWKDKVLSLTSEECNRFEINNSMTDGLYDICYQASKLLNRYQEMCVIKEI | not soluble |
| NYNIYDHPKAAEDRKNTVLYLMHYHKRITDKQWEDAKKIDLKANLVNRTPEERQNIDTNQDSEYNSYVNFVKSELMNNKAFKDENLGNVLQSG | not soluble |
| MNQKIYWDELKEGEQFSYGHYQVSEHENIDFAKRYDPMEFHVDPEKAKLSPIGALCASGIHTLGIMQRLTFDNIYTNWHIVAGRELRKCQFRLPVFVDDCLTVNMTIAKLSVDTRSDRGNAELTFDVKNAKGKTVLEVEGEIVLQRFPSILEHHHHHH | not soluble |
| MDIGRAVRFLRKRQGWTQQQLADFSHTSKSNISNLENGNQGYSPAILEYLAKAFNCSVSQIFLLAENMDNEGNLLKDWQHMPIDVLFIQLPQEVQCQLKHLIFTLIDTKK | not soluble |
| MKRLADVKISTLDLVPVRHDKGPADSLRNSLNLAQHVEKLGYNRFWVAEHHNMDGIASSATSVLLAYLAGGTSTIRVGAGGIMLPNHAPLVVAEQFGTLASLYPGRIDLGLGRAPGSDQMTARALRRERSGSAEDFPDDVTELMEYLGPRTPDQKVIAVPGSDTNVPIWLLGSSLFSAQLAGMRGLPYAFASHFAPRYMHEAIRVYRNHFQPSAVLDKPYVMLGVPLSAADTDEHAEYLATSVYQRILALMRGHSLMQRPPVESMDGLWLPHEREAVASFLGLAMVGGPDKIRAKLDVLLEQTDADELIFTCDMYEHEDRLRSYEILAQVAQG | not soluble |
| MIDKVRAFIHRHQLLSEGAAVIVGVSGGPDSLALLHVFLSLRDEWKLQVIAAHVDHMFRGRESEEEMEFVKRFCVERRILCETAQIDVPAFQRSAGLGAQEAARICRYRFFAELMEKHQAGYVAVGHHGDDQVETILMRLVRGSTSKGYAGIPVKRPFHGGYLIRPFLAVSRAEIEAYCRQMGLSPRCDPSNEKDDYTRNRFRHHIVPLLRQENPRLHERFQQYSEMMAEDEQFLEELAADALNKVMEKQHRDAALSIGPFLELPRPLQRRVLQLLLLRLYGGVPPTLTSVHIGHILMLCERGRPSGMIDLPKGLKVIRSYDRCLFTFDAESGEKGYWFELPVPALLPLPNGYAIISEFGEHYPRKQAGNDWFVVDPASVSLPLRVRTRRRGDRMVLKGTGGTKKLKEIFIEAKIPRMERDRWPIVEDADGRILWVPGLKKSAFEAQNRGQARYILLQYQAMNS | soluble |
| MGHHHHHHSHIAFLGPKGSYSHLAARQYAARHFEQFIESGCAKFADIFNQVETGQADYAVVPIENTSSGAINDVYDLLQHTSLSIVGEMTLTIDHCLLVSGTTDLSTINTVYSHPQPFQQCSKFLNRYPHWKIEYTESTSAAMEKVAQAKSPHVAALGSEAGGTLYGLQVLERIEANQRQNFTRFVVLARKAI | soluble |
| MAGWETHKKAQWLCQLRKGMSMLPDTLSEQFVLYLDVLDGGSFSAAARKHPLTPSAVARRMDALERAVGSTLLVRTTHAVRATPAGLAFADRARRIVTELRLARAEAVSLSTAPQGLIRIDAPVPFGRRHLAPAVADFLKANPGLDVQLRLIGSFIDLQGEHLGEVDLVLRAGPLPDSRLVATSLAPMVRVVCASPEYLREHGVPASPGELPEHAGIDWDNLSPPYAWRFQHDGKLQHLRPKRARLATNNAEAMVDAALAGLGIAHLPTWLCSEYLLRGELQALFCDDGLPAAEPTCIYALRLEREASSRTRLLLAFLRERFGFPPPWDQALQQRLGER | not soluble |
